Assay results from article PMC6978647.
Where two headings read alike, the source gives them in different places.

Legend:
[1] = molecular target: aeBlue chromoprotein (Actinia equina); experiment: SEC
[2] = molecular target: aeBlue chromoprotein (Actinia equina); experiment: SEC; remark: listed apart in the source

aeBlue chromoprotein (natural protein)
stoichiometry N [1]: 3.84 subunits | stoichiometry N [2]: 4.45 subunits
